In publication doi:10.1101/2025.07.16.665153:

Biological target: endogenous MpUVR8 of Marchantia polymorpha (Marchantia polymorpha (endogenous in Tak-1 gemmalings))
Assay: cross-linking

stoichiometry N: 2
Substance: endogenous MpUVR8 of Marchantia polymorpha (natural protein)
